# Tests used:
# Experiment in all cases: cell-based or functional assay
# [1] = molecular target: HIV-1 Env of pseudovirus 0815.v3.c3 (HIV-1)
# [2] = molecular target: HIV-1 Env of pseudovirus 1056_10_TA11_1826 (HIV-1)
# [3] = molecular target: HIV-1 Env of pseudovirus 191084 B7-19 (HIV-1)
# [4] = molecular target: HIV-1 Env of pseudovirus 246F C1G (HIV-1)
# [5] = molecular target: HIV-1 Env of pseudovirus 3301.v1.c24 (HIV-1)
# [6] = molecular target: HIV-1 Env of pseudovirus 6540.v4.c1 (HIV-1)
# [7] = molecular target: HIV-1 Env of pseudovirus 6811.v7.c18 (HIV-1)
# [8] = molecular target: HIV-1 Env of pseudovirus 7030102001E5(Rev-) (HIV-1)
# [9] = molecular target: HIV-1 Env of pseudovirus 9004SS_A3_4 (HIV-1)
# [10] = molecular target: HIV-1 Env of pseudovirus 928-28 (HIV-1)
# [11] = molecular target: HIV-1 Env of pseudovirus AC10.0.29 (HIV-1)
# [12] = molecular target: HIV-1 Env of pseudovirus C2101.c01 (HIV-1)
# [13] = molecular target: HIV-1 Env of pseudovirus CAP210.2.00.E8 (HIV-1)
# [14] = molecular target: HIV-1 Env of pseudovirus CNE20 (HIV-1)
# [15] = molecular target: HIV-1 Env of pseudovirus CNE21 (HIV-1)
# [16] = molecular target: HIV-1 Env of pseudovirus CNE5 (HIV-1)
# [17] = molecular target: HIV-1 Env of pseudovirus CNE52 (HIV-1)
# [18] = molecular target: HIV-1 Env of pseudovirus Ce0393_C3 (HIV-1)
# [19] = molecular target: HIV-1 Env of pseudovirus Ce0682_E4 (HIV-1)
# [20] = molecular target: HIV-1 Env of pseudovirus Ce2060_G9 (HIV-1)
# [21] = molecular target: HIV-1 Env of pseudovirus Ce704809221_1B3 (HIV-1)
# [22] = molecular target: HIV-1 Env of pseudovirus Du172.17 (HIV-1)
# [23] = molecular target: HIV-1 Env of pseudovirus Q461.e2 (HIV-1)
# [24] = molecular target: HIV-1 Env of pseudovirus T250-4 (HIV-1)
# [25] = molecular target: HIV-1 Env of pseudovirus T251-18 (HIV-1)
# [26] = molecular target: HIV-1 Env of pseudovirus T255-34 (HIV-1)
# [27] = molecular target: HIV-1 Env of pseudovirus T257-31 (HIV-1)
# [28] = molecular target: HIV-1 Env of pseudovirus THRO4156.18 (HIV-1)
# [29] = molecular target: HIV-1 Env of pseudovirus TRJO4551.58 (HIV-1)
# [30] = molecular target: HIV-1 Env of pseudovirus WITO4160.33 (HIV-1)
# [31] = molecular target: HIV-1 Env of pseudovirus X1193_c1 (HIV-1)
# [32] = molecular target: HIV-1 Env of pseudovirus X2088_c9 (HIV-1)
# [33] = molecular target: HIV-1 Env of pseudovirus X2131_C1_B5 (HIV-1)
# [34] = molecular target: HIV-1 Env of pseudovirus ZM135M.PL10a (HIV-1)
# [35] = molecular target: HIV-1 Env of pseudovirus ZM197M.PB7 (HIV-1)
# [36] = molecular target: HIV-1 Env of pseudovirus ZM214M.PL15 (HIV-1)
# [37] = molecular target: HIV-1 Env of pseudovirus ZM249M.PL1 (HIV-1)
substance,measurement,setting,value
3BNC117 (antibody),"IC50, titer in TZM.bl cells",[1],0.01 µg/mL
same,"IC80, titer in TZM.bl cells",[1],0.02 µg/mL
same,neutralization IC50,[2],0.3 µg/mL
same,neutralization IC80,[2],1.82 µg/mL
same,neutralization IC50,[3],0.07 µg/mL
same,neutralization IC80,[3],0.23 µg/mL
same,neutralization IC50,[4],19.3 µg/mL
same,neutralization IC80,[4],> 50 µg/mL
same,"IC50, titer in TZM.bl cells",[5],0.01 µg/mL
same,"IC80, titer in TZM.bl cells",[5],0.05 µg/mL
same,"IC50, titer in TZM.bl cells",[6],> 50 µg/mL
same,"IC80, titer in TZM.bl cells",[6],> 50 µg/mL
same,"IC50, titer in TZM.bl cells",[7],0.03 µg/mL
same,"IC80, titer in TZM.bl cells",[7],0.17 µg/mL
same,neutralization IC50,[8],0.29 µg/mL
same,neutralization IC80,[8],1.44 µg/mL
same,neutralization IC50,[9],0.07 µg/mL
same,neutralization IC80,[9],0.18 µg/mL
same,neutralization IC50,[10],0.15 µg/mL
same,neutralization IC80,[10],0.55 µg/mL
same,neutralization IC50,[11],13.8 µg/mL
same,neutralization IC80,[11],> 50 µg/mL
same,"IC50, titer in TZM.bl cells",[12],0.05 µg/mL
same,"IC80, titer in TZM.bl cells",[12],0.31 µg/mL
same,neutralization IC50,[13],17.2 µg/mL
same,neutralization IC80,[13],> 50 µg/mL
same,neutralization IC50,[14],> 50 µg/mL
same,neutralization IC80,[14],> 50 µg/mL
same,neutralization IC50,[15],45.4 µg/mL
same,neutralization IC80,[15],> 50 µg/mL
same,"IC50, titer in TZM.bl cells",[16],0.28 µg/mL
same,"IC80, titer in TZM.bl cells",[16],1.28 µg/mL
same,neutralization IC50,[17],0.02 µg/mL
same,neutralization IC80,[17],0.06 µg/mL
same,neutralization IC50,[18],0.2 µg/mL
same,neutralization IC80,[18],0.67 µg/mL
same,neutralization IC50,[19],0.03 µg/mL
same,neutralization IC80,[19],0.15 µg/mL
same,neutralization IC50,[20],0.24 µg/mL
same,neutralization IC80,[20],0.81 µg/mL
same,neutralization IC50,[21],0.08 µg/mL
same,neutralization IC80,[21],0.31 µg/mL
same,neutralization IC50,[22],1.19 µg/mL
same,neutralization IC80,[22],8.9 µg/mL
same,neutralization IC50,[23],0.03 µg/mL
same,neutralization IC80,[23],0.09 µg/mL
same,"IC50, titer in TZM.bl cells",[24],> 15 µg/mL
same,"IC80, titer in TZM.bl cells",[24],> 15 µg/mL
same,"IC50, titer in TZM.bl cells",[25],0.26 µg/mL
same,"IC80, titer in TZM.bl cells",[25],0.82 µg/mL
same,"IC50, titer in TZM.bl cells",[26],0.02 µg/mL
same,"IC80, titer in TZM.bl cells",[26],0.14 µg/mL
same,neutralization IC50,[27],0.06 µg/mL
same,neutralization IC80,[27],0.37 µg/mL
same,neutralization IC50,[28],1.76 µg/mL
same,neutralization IC80,[28],10.1 µg/mL
same,neutralization IC50,[29],0.05 µg/mL
same,neutralization IC80,[29],0.19 µg/mL
same,neutralization IC50,[30],0.01 µg/mL
same,neutralization IC80,[30],0.04 µg/mL
same,"IC50, titer in TZM.bl cells",[31],0.06 µg/mL
same,"IC80, titer in TZM.bl cells",[31],0.25 µg/mL
same,"IC50, titer in TZM.bl cells",[32],> 50 µg/mL
same,"IC80, titer in TZM.bl cells",[32],> 50 µg/mL
same,"IC50, titer in TZM.bl cells",[33],0.43 µg/mL
same,"IC80, titer in TZM.bl cells",[33],1.96 µg/mL
same,neutralization IC50,[34],0.03 µg/mL
same,neutralization IC80,[34],0.13 µg/mL
same,neutralization IC50,[35],0.22 µg/mL
same,neutralization IC80,[35],1.03 µg/mL
same,neutralization IC50,[36],0.06 µg/mL
same,neutralization IC80,[36],0.52 µg/mL
same,neutralization IC50,[37],0.03 µg/mL
same,neutralization IC80,[37],0.11 µg/mL
N49P7.2 (antibody),IC50,[1],0.023 µg/mL
same,IC80,[1],0.103 µg/mL
same,MPI,[1],100
same,IC50,[3],0.102 µg/mL
same,IC80,[3],0.29 µg/mL
same,MPI,[3],100
same,IC50,[5],0.05 µg/mL
same,IC80,[5],0.137 µg/mL
same,MPI,[5],100
same,IC50,[6],> 50 µg/mL
same,IC80,[6],> 50 µg/mL
same,MPI,[6],33
same,IC50,[7],0.541 µg/mL
same,IC80,[7],2.55 µg/mL
same,MPI,[7],100
same,IC50,[9],0.266 µg/mL
same,IC80,[9],1.62 µg/mL
same,MPI,[9],100
same,IC50,[10],0.347 µg/mL
same,IC80,[10],1.11 µg/mL
same,MPI,[10],100
same,IC50,[12],0.162 µg/mL
same,IC80,[12],0.727 µg/mL
same,MPI,[12],100
same,IC50,[16],0.206 µg/mL
same,IC80,[16],0.893 µg/mL
same,MPI,[16],100
same,IC50,[24],> 50 µg/mL
same,IC80,[24],> 50 µg/mL
same,MPI,[24],15
same,IC50,[25],0.222 µg/mL
same,IC80,[25],0.741 µg/mL
same,MPI,[25],100
same,IC50,[26],0.167 µg/mL
same,IC80,[26],0.527 µg/mL
same,MPI,[26],100
same,IC50,[27],0.627 µg/mL
same,IC80,[27],1.79 µg/mL
same,MPI,[27],100
same,IC50,[31],0.014 µg/mL
same,IC80,[31],0.101 µg/mL
same,MPI,[31],100
same,IC50,[32],0.377 µg/mL
same,IC80,[32],2.03 µg/mL
same,MPI,[32],99
same,IC50,[33],0.161 µg/mL
same,IC80,[33],0.671 µg/mL
same,MPI,[33],100
N49P18.1 (antibody),IC50,[1],0.741 µg/mL
same,IC80,[1],8.45 µg/mL
same,MPI,[1],99
same,IC50,[3],5.59 µg/mL
same,IC80,[3],16.9 µg/mL
same,MPI,[3],98
same,IC50,[5],3.25 µg/mL
same,IC80,[5],11.3 µg/mL
same,MPI,[5],99
same,IC50,[6],> 50 µg/mL
same,IC80,[6],> 50 µg/mL
same,MPI,[6],35
same,IC50,[7],7.43 µg/mL
same,IC80,[7],31.9 µg/mL
same,MPI,[7],94
same,IC50,[9],3.02 µg/mL
same,IC80,[9],13.9 µg/mL
same,MPI,[9],99
same,IC50,[10],22.7 µg/mL
same,IC80,[10],> 50 µg/mL
same,MPI,[10],71
same,IC50,[12],15.3 µg/mL
same,IC80,[12],41.9 µg/mL
same,MPI,[12],85
same,IC50,[16],19.5 µg/mL
same,IC80,[16],> 50 µg/mL
same,MPI,[16],72
same,IC50,[24],4.86 µg/mL
same,IC80,[24],15.1 µg/mL
same,MPI,[24],94
same,IC50,[25],23 µg/mL
same,IC80,[25],> 50 µg/mL
same,MPI,[25],70
same,IC50,[26],10.4 µg/mL
same,IC80,[26],33.8 µg/mL
same,MPI,[26],90
same,IC50,[27],> 50 µg/mL
same,IC80,[27],> 50 µg/mL
same,MPI,[27],48
same,IC50,[31],3.12 µg/mL
same,IC80,[31],23.9 µg/mL
same,MPI,[31],94
same,IC50,[32],9.08 µg/mL
same,IC80,[32],34.9 µg/mL
same,MPI,[32],88
same,IC50,[33],30.4 µg/mL
same,IC80,[33],> 50 µg/mL
same,MPI,[33],75

# Reference: patent US20230002480A1
